The target of assay [1] is T1, MBP-tagged Ana3-C1 fragment (amino acids 1195-1977) (Drosophila melanogaster, UniProt A1Z8X3 1195-1977).
T1 construct: Vector pKM596; also called MBP::Ana3 C1; Ana3-C terminal 1; source: E. coli Rosetta BL21(DE3), purified; not shown: MBP, N-terminal, kept
T1 sequence (looked up): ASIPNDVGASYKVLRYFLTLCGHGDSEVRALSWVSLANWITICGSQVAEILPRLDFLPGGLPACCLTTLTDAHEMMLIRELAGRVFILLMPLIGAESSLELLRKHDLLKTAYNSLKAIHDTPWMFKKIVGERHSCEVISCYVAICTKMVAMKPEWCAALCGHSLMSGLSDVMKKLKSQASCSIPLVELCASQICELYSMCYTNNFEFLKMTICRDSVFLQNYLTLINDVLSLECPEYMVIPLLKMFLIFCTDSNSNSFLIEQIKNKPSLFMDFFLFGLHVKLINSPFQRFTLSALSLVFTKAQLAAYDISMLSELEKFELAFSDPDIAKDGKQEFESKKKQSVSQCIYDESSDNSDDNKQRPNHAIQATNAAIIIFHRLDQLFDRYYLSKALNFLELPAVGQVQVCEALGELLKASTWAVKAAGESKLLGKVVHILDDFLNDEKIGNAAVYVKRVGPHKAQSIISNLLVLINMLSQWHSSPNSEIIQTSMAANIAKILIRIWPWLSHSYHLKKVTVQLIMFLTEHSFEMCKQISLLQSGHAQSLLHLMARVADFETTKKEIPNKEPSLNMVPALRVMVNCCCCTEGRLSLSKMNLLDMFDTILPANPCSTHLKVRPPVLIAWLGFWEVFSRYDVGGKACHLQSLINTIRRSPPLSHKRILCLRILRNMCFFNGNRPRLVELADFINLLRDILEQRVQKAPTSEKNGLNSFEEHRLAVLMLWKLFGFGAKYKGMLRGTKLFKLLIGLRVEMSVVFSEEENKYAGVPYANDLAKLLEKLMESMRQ
Description: pull-down; GST-Rcd4 held on glutathione-sepharose 4B beads, MBP-tagged Ana3 fragment added, 1 h at 4°C; 20 mM Tris pH 7.5, 200 mM NaCl, 1 mM DTT, 10% glycerol; SDS-PAGE (Coomassie) and anti-MBP Western blot. Conditions: both partners purified. (In general: Immunoblotting shows a protein as a band on a membrane.)

Assay [2] deals with T2, GST-tagged full-length Ana3 (Drosophila melanogaster, UniProt A1Z8X3 1-1977).
T2 construct: Ana3, Drosophila melanogaster; also called GST::Ana3; GST-Ana3; source: S. cerevisiae (plasmid pMG1): coexpressed with 6xHis-Rcd4, in crude extract; also expressed alone and purified on glutathione beads
Description: pull-down; full-length GST-Ana3 purified from S. cerevisiae incubated with MBP-Rcd4 purified from E. coli; GST::Ana3 purified, SDS-PAGE (Coomassie) and Western blot for MBP::Rcd4. Conditions: both partners purified.

B1: GST-tagged Rcd4 (natural protein, Drosophila melanogaster, UniProt Q9VLM6 1-199, looked up)
chain: MPHKRRNRVHANQRNFTARRVSVAKLSSAPPNVLVESCNGSHADNSSPDSPKAKEGAMTNGKNPEIKLAVPKCNTTVRKQNEAHIISNIKLDMNLNKDSNFIAPQITKKMNFAPNRVVFGVLVPLNVNDSVLVPHNRKPDALKHTSKESESCKAISEPQLADYAEKVDPMIMAVKEPVLHLDWEPGPFDFFGAYRRTYN
notes: Rcd4, Drosophila melanogaster; 199 amino acid protein; also called GST::Rcd4; GST-Rcd4; source: E. coli Rosetta BL21(DE3), purified on glutathione-sepharose 4B beads; not shown: GST, N-terminal, kept
For B1, in assay [1], the binding result is “binds”.

B2: MBP-tagged Rcd4 (natural protein, Drosophila melanogaster, UniProt Q9VLM6 1-199, looked up)
chain: MPHKRRNRVHANQRNFTARRVSVAKLSSAPPNVLVESCNGSHADNSSPDSPKAKEGAMTNGKNPEIKLAVPKCNTTVRKQNEAHIISNIKLDMNLNKDSNFIAPQITKKMNFAPNRVVFGVLVPLNVNDSVLVPHNRKPDALKHTSKESESCKAISEPQLADYAEKVDPMIMAVKEPVLHLDWEPGPFDFFGAYRRTYN
notes: Rcd4, Drosophila melanogaster; 199 amino acid protein; also called MBP::Rcd4; MBP-Rcd4; source: E. coli Rosetta BL21(DE3), purified; not shown: MBP, N-terminal, kept
On to B2, for which the binding result in assay [2] was “binds”.

The record behind these values is publication PMC7401805, “Tissue specific requirement of Drosophila Rcd4 for centriole duplication and ciliogenesis” (The Journal of Cell Biology, 2020).
